This note sets out measurements from the supplement of paper PMC10567573.

B1: FBXO3 (parent)
chain: GGFPIIRDQIFRYVHDPECVATTG
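Note: lentivirally expressed fusions sorted by FACS into six bins by GFP to DsRed ratio, PSI derived from sequencing read proportions per bin multiplied by bin number.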

Variants of B1 are the subject of the data set. The experiment in a line: protein stability index of a GFP-peptide fusion (GPS, HEK-293T) (PSI 1-6); higher = more stable. The following applies: c terminus: a fixed tail appended.
GEFPIIRDQIFRYVHDPECVATTG: the protein stability index worked out at 1.97.
On to GFFPIIRDQIFRYVHDPECVATTG, for which the protein stability index was 2.03.
Take GLFPIIRDQIFRYVHDPECVATTG: the protein stability index amounted to 1.86.
The value for GKFPIIRDQIFRYVHDPECVATTG was 2.54.
As for GMFPIIRDQIFRYVHDPECVATTG, the protein stability index worked out at 1.68.
For GCFPIIRDQIFRYVHDPECVATTG, the protein stability index amounted to 1.51.
In the case of GNFPIIRDQIFRYVHDPECVATTG it was 2.28; in that of GPFPIIRDQIFRYVHDPECVATTG, 2.38.
As for GYFPIIRDQIFRYVHDPECVATTG, the protein stability index turned out to be 1.78.
The value for GDFPIIRDQIFRYVHDPECVATTG was 3.02; that for GRFPIIRDQIFRYVHDPECVATTG was 2.41; that for GTFPIIRDQIFRYVHDPECVATTG was 2.19.
The value for GSFPIIRDQIFRYVHDPECVATTG was 1.76; that for GVFPIIRDQIFRYVHDPECVATTG was 2.5.
In the case of GGFPIIEDQIFRYVHDPECVATTG it was 3.79; in that of GGFPIIFDQIFRYVHDPECVATTG, 1.67.
Regarding GGFPIIDDQIFRYVHDPECVATTG, the protein stability index is 3.92.
With GGFPIIGDQIFRYVHDPECVATTG, the protein stability index amounted to 2.99.
In the case of GGFPIIADQIFRYVHDPECVATTG it was 3.41; in that of GGFPIICDQIFRYVHDPECVATTG, 2.35; in that of IGFPIIRDQIFRYVHDPECVATTG, 2.05.
MGFPIIRDQIFRYVHDPECVATTG: the protein stability index came to 1.64.
Consider DGFPIIRDQIFRYVHDPECVATTG, for which the protein stability index amounted to 2.65.
Turning to LGFPIIRDQIFRYVHDPECVATTG, the protein stability index is 1.64.
For HGFPIIRDQIFRYVHDPECVATTG, the protein stability index was determined as 2.02.
In the case of SGFPIIRDQIFRYVHDPECVATTG it was 2.01.
With KGFPIIRDQIFRYVHDPECVATTG, the protein stability index turned out to be 2.15.
For the variant WGFPIIRDQIFRYVHDPECVATTG, the protein stability index amounted to 1.73.
In the case of QGFPIIRDQIFRYVHDPECVATTG it was 2.15.
With RGFPIIRDQIFRYVHDPECVATTG, the protein stability index came to 2.16.
Consider AGFPIIRDQIFRYVHDPECVATTG, for which the protein stability index was 2.29.
The value for VGFPIIRDQIFRYVHDPECVATTG was 1.79; that for CGFPIIRDQIFRYVHDPECVATTG was 1.21.
In the case of NGFPIIRDQIFRYVHDPECVATTG it was 2.4; in that of EGFPIIRDQIFRYVHDPECVATTG, 2.6.
In the case of YGFPIIRDQIFRYVHDPECVATTG it was 1.55; in that of FGFPIIRDQIFRYVHDPECVATTG, 1.55; in that of TGFPIIRDQIFRYVHDPECVATTG, 2.74.
For PGFPIIRDQIFRYVHDPECVATTG, the protein stability index is 2.51.
The value for GGFRIIRDQIFRYVHDPECVATTG was 2.21.
The value for GGFEIIRDQIFRYVHDPECVATTG was 2.93; that for GGFNIIRDQIFRYVHDPECVATTG was 2.15; that for GGFKIIRDQIFRYVHDPECVATTG was 2.54.
As for GGFDIIRDQIFRYVHDPECVATTG, the protein stability index was found to be 2.72.
The value for GGFGIIRDQIFRYVHDPECVATTG was 2.33; that for GGFTIIRDQIFRYVHDPECVATTG was 1.67; that for GGFLIIRDQIFRYVHDPECVATTG was 2.39.
On to GGFSIIRDQIFRYVHDPECVATTG, for which the protein stability index came to 2.03.
The value for GGFCIIRDQIFRYVHDPECVATTG was 2.23; that for GGFIIIRDQIFRYVHDPECVATTG was 2.08.
Consider GGFYIIRDQIFRYVHDPECVATTG, for which the protein stability index worked out at 2.75.
The value for GGFFIIRDQIFRYVHDPECVATTG was 2.3.
The value for GGFVIIRDQIFRYVHDPECVATTG was 1.29; that for GGFHIIRDQIFRYVHDPECVATTG was 2.02; that for GGFAIIRDQIFRYVHDPECVATTG was 1.66.
For the variant GGFQIIRDQIFRYVHDPECVATTG, the protein stability index turned out to be 1.75.
The value for GGFPPIRDQIFRYVHDPECVATTG was 1.85; that for GGFPGIRDQIFRYVHDPECVATTG was 2.32.
Regarding GGFPTIRDQIFRYVHDPECVATTG, the protein stability index came out at 2.28.
Turning to GGFPVIRDQIFRYVHDPECVATTG, the protein stability index worked out at 1.58.
In the case of GGFPYIRDQIFRYVHDPECVATTG it was 2.26; in that of GGFPFIRDQIFRYVHDPECVATTG, 1.58; in that of GGFPMIRDQIFRYVHDPECVATTG, 2.71.
In the case of GGFPHIRDQIFRYVHDPECVATTG it was 2.14; in that of GGFPSIRDQIFRYVHDPECVATTG, 2.23; in that of GGFPRIRDQIFRYVHDPECVATTG, 1.86.
For GGFPQIRDQIFRYVHDPECVATTG, the protein stability index worked out at 1.59.
Turning to GGFPKIRDQIFRYVHDPECVATTG, the protein stability index stood at 1.19.
For the variant GGFPCIRDQIFRYVHDPECVATTG, the protein stability index came to 1.86.
The value for GGFPLIRDQIFRYVHDPECVATTG was 1.64; that for GGFPNIRDQIFRYVHDPECVATTG was 2.4; that for GGFPEIRDQIFRYVHDPECVATTG was 2.64.
The value for GGFPDIRDQIFRYVHDPECVATTG was 2.61; that for GGFPAIRDQIFRYVHDPECVATTG was 2.39; that for GGFPWIRDQIFRYVHDPECVATTG was 1.53.
Turning to GGYPIIRDQIFRYVHDPECVATTG, the protein stability index came to 1.57.
Take GGPPIIRDQIFRYVHDPECVATTG: the protein stability index came out at 2.76.
The value for GGWPIIRDQIFRYVHDPECVATTG was 2.28.
For GGLPIIRDQIFRYVHDPECVATTG, the protein stability index is 1.94.
For GGSPIIRDQIFRYVHDPECVATTG, the protein stability index was determined as 2.59.
Regarding GGEPIIRDQIFRYVHDPECVATTG, the protein stability index was 2.9.
On to GGQPIIRDQIFRYVHDPECVATTG, for which the protein stability index was found to be 2.58.
In the case of GGCPIIRDQIFRYVHDPECVATTG it was 2.14.
For the variant GGDPIIRDQIFRYVHDPECVATTG, the protein stability index amounted to 3.2.
The value for GGGPIIRDQIFRYVHDPECVATTG was 2.55; that for GGRPIIRDQIFRYVHDPECVATTG was 2.59.
In the case of GGKPIIRDQIFRYVHDPECVATTG it was 2.87; in that of GGNPIIRDQIFRYVHDPECVATTG, 2.78; in that of GGIPIIRDQIFRYVHDPECVATTG, 2.29.
The value for GGVPIIRDQIFRYVHDPECVATTG was 2.38; that for GGTPIIRDQIFRYVHDPECVATTG was 3.17.
For GGHPIIRDQIFRYVHDPECVATTG, the protein stability index was determined as 2.21.
The value for GGMPIIRDQIFRYVHDPECVATTG was 2.1.
Consider GGAPIIRDQIFRYVHDPECVATTG, for which the protein stability index worked out at 3.13.
